System: Escherichia coli TOP10
Assay: shrunken log2 fold change of peptide-encoding DNA abundance (4.5 h post-induction vs induction); higher = less antimicrobial activity (less host growth inhibition)
Details: time post-induction: 4.5 h; library: site-saturation at positions 5, 18, 19, 20
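Further: peptides expressed intracellularly from a pBAD plasmid library in pooled LB shake-flask culture, induced with 0.3% L-arabinose, DNA abundance read by NGS, three biological replicates, DESeq2 with apeglm shrinkage.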

RRIRSRPPRLPRPRPRPVMTPRP and RRIRIRPPRLPRPRPRPCDGPRP are within 0.2 log units of each other in “shrunken log2 fold change” value: -0.0963 for the first, -0.00133 for the second.

First: RRIRARPPRLPRPRPRPQHRPRP
Second: RRIRRRPPRLPRPRPRPNFPPRP
The “shrunken log2 fold change” value of the first is lower: -0.281 for the first, 0.46 for the second.

RRIRPRPPRLPRPRPRPYWWPRP and RRIRFRPPRLPRPRPRPACTPRP are within 0.2 log units of each other in “shrunken log2 fold change” value: 0.0199 for the first, -0.148 for the second.

RRIRRRPPRLPRPRPRPKRSPRP and RRIRTRPPRLPRPRPRPRRCPRP are within 0.2 log units of each other in “shrunken log2 fold change” value: 0.11 for the first, 0.0091 for the second.

Going from RRIRRRPPRLPRPRPRPWQLPRP to RRIRMRPPRLPRPRPRPPSEPRP, the “shrunken log2 fold change” value rises from 0.144 to 0.962.

Going from RRIRHRPPRLPRPRPRPWRSPRP to RRIRKRPPRLPRPRPRPKFIPRP, the “shrunken log2 fold change” value falls from -0.0818 to -1.04.

Compared with RRIRFRPPRLPRPRPRPSCYPRP, RRIRPRPPRLPRPRPRPVPMPRP is higher in “shrunken log2 fold change” value: -0.839 for the first, 0.0911 for the second.

RRIRYRPPRLPRPRPRPIIMPRP and RRIRLRPPRLPRPRPRPPEVPRP are within 0.2 log units of each other in “shrunken log2 fold change” value: -0.0214 for the first, -0.0157 for the second.

RRIRARPPRLPRPRPRPFYFPRP and RRIRQRPPRLPRPRPRPMWFPRP are within 0.2 log units of each other in “shrunken log2 fold change” value: 0.00316 for the first, 0.153 for the second.

RRIRCRPPRLPRPRPRPNPDPRP and RRIRVRPPRLPRPRPRPDLNPRP are within 0.2 log units of each other in “shrunken log2 fold change” value: -0.306 for the first, -0.233 for the second.

Going from RRIRFRPPRLPRPRPRPVIVPRP to RRIRYRPPRLPRPRPRPKLTPRP, the “shrunken log2 fold change” value rises from -0.997 to -0.173.

First: RRIRERPPRLPRPRPRPEHNPRP
Second: RRIRARPPRLPRPRPRPCGTPRP
The “shrunken log2 fold change” value of the first is lower: -0.203 for the first, 0.475 for the second.

Going from RRIRRRPPRLPRPRPRPYYTPRP to RRIRLRPPRLPRPRPRPIEEPRP, the “shrunken log2 fold change” value falls from 1.46 to 0.0311.

RRIRCRPPRLPRPRPRPKFQPRP and RRIRTRPPRLPRPRPRPAKLPRP are within 0.2 log units of each other in “shrunken log2 fold change” value: -0.0341 for the first, 0.108 for the second.

Going from RRIRIRPPRLPRPRPRPAYAPRP to RRIRLRPPRLPRPRPRPVLQPRP, the “shrunken log2 fold change” value rises from -0.197 to 0.195.

Going from RRIRHRPPRLPRPRPRPSCTPRP to RRIRWRPPRLPRPRPRPQLQPRP, the “shrunken log2 fold change” value rises from -0.263 to 0.229.

First: RRIRFRPPRLPRPRPRPTKWPRP
Second: RRIRYRPPRLPRPRPRPMGPPRP
The “shrunken log2 fold change” value of the first is higher: 0.333 for the first, -0.121 for the second.

First: RRIRVRPPRLPRPRPRPALPPRP
Second: RRIRRRPPRLPRPRPRPYGCPRP
The “shrunken log2 fold change” value of the first is higher: 0.329 for the first, -0.00402 for the second.

First: RRIRGRPPRLPRPRPRPGINPRP
Second: RRIRFRPPRLPRPRPRPSNGPRP
The “shrunken log2 fold change” value of the first is higher: 0.499 for the first, -0.238 for the second.

Compared with RRIRERPPRLPRPRPRPIKRPRP, RRIRTRPPRLPRPRPRPKWRPRP is higher in “shrunken log2 fold change” value: -0.171 for the first, 0.394 for the second.

Compared with RRIRRRPPRLPRPRPRPTMTPRP, RRIRWRPPRLPRPRPRPCDYPRP is lower in “shrunken log2 fold change” value: 0.487 for the first, -0.0182 for the second.

First: RRIRRRPPRLPRPRPRPANYPRP
Second: RRIRARPPRLPRPRPRPGPFPRP
The “shrunken log2 fold change” value of the first is lower: -0.049 for the first, 0.231 for the second.

First: RRIRQRPPRLPRPRPRPTPCPRP
Second: RRIRGRPPRLPRPRPRPREEPRP
The “shrunken log2 fold change” value of the first is lower: -0.138 for the first, 1.57 for the second.

RRIRYRPPRLPRPRPRPCRMPRP and RRIRHRPPRLPRPRPRPCCIPRP are within 0.2 log units of each other in “shrunken log2 fold change” value: -0.0503 for the first, -0.0109 for the second.

Going from RRIRHRPPRLPRPRPRPCNSPRP to RRIRGRPPRLPRPRPRPPNYPRP, the “shrunken log2 fold change” value rises from -0.0938 to 0.299.

First: RRIRNRPPRLPRPRPRPFHCPRP
Second: RRIRGRPPRLPRPRPRPHMCPRP
The “shrunken log2 fold change” value of the first is lower: -0.536 for the first, -0.01 for the second.

RRIRARPPRLPRPRPRPWGNPRP and RRIRKRPPRLPRPRPRPIDIPRP are within 0.2 log units of each other in “shrunken log2 fold change” value: 0.00277 for the first, 0.00848 for the second.

Going from RRIRTRPPRLPRPRPRPDTHPRP to RRIRWRPPRLPRPRPRPDCTPRP, the “shrunken log2 fold change” value rises from -0.424 to 0.372.

First: RRIRDRPPRLPRPRPRPPLDPRP
Second: RRIRFRPPRLPRPRPRPVIPPRP
The “shrunken log2 fold change” value of the first is higher: 0.652 for the first, -0.102 for the second.

RRIRQRPPRLPRPRPRPMRIPRP and RRIRFRPPRLPRPRPRPQNAPRP are within 0.2 log units of each other in “shrunken log2 fold change” value: -0.0249 for the first, 0.0534 for the second.
